Data as given in patent publication US6566080 (NEW ENGLAND MEDICAL CENTER HOSPITALS, dated 2003).
Ends that are not written are not given here.

T1: wild-type human CCK-B/gastrin receptor (human, UniProt P32239 1-447)
T1 sequence: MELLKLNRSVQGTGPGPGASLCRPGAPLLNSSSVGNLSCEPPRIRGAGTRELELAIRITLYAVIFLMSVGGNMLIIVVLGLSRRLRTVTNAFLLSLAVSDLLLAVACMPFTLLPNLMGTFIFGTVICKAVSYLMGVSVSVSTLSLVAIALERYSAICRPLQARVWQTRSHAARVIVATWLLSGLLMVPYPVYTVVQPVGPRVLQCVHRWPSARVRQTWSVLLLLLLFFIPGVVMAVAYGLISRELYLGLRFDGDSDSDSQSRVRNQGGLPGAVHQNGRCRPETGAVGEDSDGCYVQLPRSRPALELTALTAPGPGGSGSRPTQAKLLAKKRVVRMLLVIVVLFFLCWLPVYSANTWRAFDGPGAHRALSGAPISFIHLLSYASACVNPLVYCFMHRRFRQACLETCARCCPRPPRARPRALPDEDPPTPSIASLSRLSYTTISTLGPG

T2: constitutively active human CCK-B/gastrin receptor mutant MH162 (^325L→E) (human, UniProt P32239 1-447)
T2 sequence: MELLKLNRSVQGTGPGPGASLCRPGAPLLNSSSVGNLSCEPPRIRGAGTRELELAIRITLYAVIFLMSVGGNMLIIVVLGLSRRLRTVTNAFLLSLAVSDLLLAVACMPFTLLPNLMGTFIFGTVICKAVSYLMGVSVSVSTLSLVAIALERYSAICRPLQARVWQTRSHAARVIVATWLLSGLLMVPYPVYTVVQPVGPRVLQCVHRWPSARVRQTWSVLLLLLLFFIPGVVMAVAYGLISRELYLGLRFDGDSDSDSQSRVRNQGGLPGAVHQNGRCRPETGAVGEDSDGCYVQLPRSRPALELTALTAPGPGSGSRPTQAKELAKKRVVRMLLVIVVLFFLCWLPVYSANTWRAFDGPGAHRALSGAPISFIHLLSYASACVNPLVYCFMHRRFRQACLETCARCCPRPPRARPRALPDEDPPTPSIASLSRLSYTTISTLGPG

T3: wild-type rat CCK-A receptor (rat, UniProt P30551 1-444)
T3 sequence: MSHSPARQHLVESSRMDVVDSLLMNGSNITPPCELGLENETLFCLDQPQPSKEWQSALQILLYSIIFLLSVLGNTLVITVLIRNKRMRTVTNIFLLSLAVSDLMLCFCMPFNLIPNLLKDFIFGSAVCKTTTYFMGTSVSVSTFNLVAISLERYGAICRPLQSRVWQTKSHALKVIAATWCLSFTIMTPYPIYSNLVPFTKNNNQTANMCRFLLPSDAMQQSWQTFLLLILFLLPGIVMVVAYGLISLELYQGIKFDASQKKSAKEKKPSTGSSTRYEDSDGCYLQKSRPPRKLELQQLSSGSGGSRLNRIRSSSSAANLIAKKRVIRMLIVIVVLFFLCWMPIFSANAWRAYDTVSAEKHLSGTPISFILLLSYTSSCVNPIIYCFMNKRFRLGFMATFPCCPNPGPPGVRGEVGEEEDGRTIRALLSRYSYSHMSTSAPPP

B1: Gastrin I (unsulphated gastrin-17) (peptide, UniProt P01350 76-92, looked up)
peptide: QGPWLEEEEEAYGWMDF
modifications: not fully specified (residue 1, C-terminus)
notes: domain: gastrin-17
B2: sulfated CCK-8 (CCK-8s) (peptide, UniProt P06307 96-103, looked up)
peptide: DYMGWMDF
modifications: not fully specified (residue 2, C-terminus)

What was measured:
[1] = target: T1, wild-type human CCK-B/gastrin receptor; assay: cell-based or functional assay
[2] = target: T2, constitutively active human …; assay: cell-based or functional assay
[3] = target: T1, wild-type human CCK-B/gastrin receptor; assay: ^125I-CCK-8 competition binding on transfected COS-7 cells
[4] = target: T2, constitutively active human …; assay: as above
[5] = target: T1, wild-type human CCK-B/gastrin receptor; assay: ^125I-CCK-8 competition binding on COS-7 cells transfected with hCCK-B-pcDNAI
Procedure: (§1) COS-7 cells (1.5 ×10^6) were plated in 10-cm culture dishes (Nunc) and grown in Dulbecco's modified Eagle's medium containing 10% fetal calf serum in a 5% CO_2, 95% air incubator at 37° C. After an overnight incubation, cells were transfected (Pacholczyk et al., *Nature* 350:350–354, 1991) with 5–7 μg of a pcDNA I expression vector containing hCCKB (HCCKB-pcDNA I). Twenty-four hours after transfection cells were split into 24-well dishes (2 ×10^4 cells/well) (Costar). After an additional 24 hours, competition binding experiments were performed in Hank's buffer supplemented with 25 mM phenylmethylsulfonyl fluoride (PMSF). […] Equilibrium binding occurred after incubation for 80 min. at 37° C. Cell monolayers were then washed three times, hydrolyzed in 1 N NaOH, and the amount of radioactivity to the receptor was quantified. […] All binding experiments were repeated three to five times.
(§2) The competition data were analyzed using computer software which is specifically designed for the purpose of radioligand binding assays (Inplot 4.0, GraphPad, San Diego, Calif.). Analyses of competition and saturation binding data can also be performed using computerized non-linear curve fitting (McPherson, G. A., *J Pharmacol Methods*, 14:213–28, 1985).

[6] = target: T2, constitutively active human …; assay: ^125I-CCK-8 competition binding; Ki at wild-type receptor over Ki at MH162
Procedure: as §1, §2

[7] = target: T3, wild-type rat CCK-A receptor; assay: cell-based or functional assay

Binder | Signaling potencies of tested ligands, IC50 [1] [nm] | Signaling potencies of tested ligands, IC50 [2] [nm] | Signaling potencies, Ratio (Wild-type/Mutant) [2] | Ki [3] [nM] | Ki [4] [nM] | IC50 [5] [nM] | Ratio (Wild-type/Mutant) of Ki [6] | CCK-8s stimulated (% human basal) inositol phosphate production [7] [% human basal]
B1 | 0.24 | 0.2 | 1.2 | 1.35 | 0.8 | 0.94 | 1.69 | –
B2 | – | – | – | – | – | – | – | 684
